Each block holds one substance with its values, some of them ahead of it.
Legend:
[1] = molecular target: Aβ from A549 cell‐conditioned media (human (endogenous in A549)); test: ELISA; single‐site ELISA for oligomerized Aβ (capture 4G8, detection 4G8‐biotin) against two‐site ELISA for total Aβ (capture 6E10, detection 4G8‐biotin); conditioned media, control or immunodepleted of HN or AChE, without or with ATP
[2] = molecular target: Aβ from A549 cell‐conditioned media (human (endogenous in A549)); test: ELISA; antibody (6E10 or 82E1 against Aβ, or anti‐HN, or anti‐AChE) bound to the wells; 300 μL conditioned medium (0.5 μg·μL^−1) added without or with ATP (100 μM, 1 mM); the partner held with the captured protein detected by its primary antibody
[3] = molecular target: Aβ from H1299 cell‐conditioned media (human (endogenous in H1299)); test: ELISA; single‐site ELISA for oligomerized Aβ (capture 4G8, detection 4G8‐biotin) against two‐site ELISA for total Aβ (capture 6E10, detection 4G8‐biotin); conditioned media, control or immunodepleted of HN or AChE, without or with ATP

Chain of AChE from A549 cell‐conditioned media (P22303 32-614): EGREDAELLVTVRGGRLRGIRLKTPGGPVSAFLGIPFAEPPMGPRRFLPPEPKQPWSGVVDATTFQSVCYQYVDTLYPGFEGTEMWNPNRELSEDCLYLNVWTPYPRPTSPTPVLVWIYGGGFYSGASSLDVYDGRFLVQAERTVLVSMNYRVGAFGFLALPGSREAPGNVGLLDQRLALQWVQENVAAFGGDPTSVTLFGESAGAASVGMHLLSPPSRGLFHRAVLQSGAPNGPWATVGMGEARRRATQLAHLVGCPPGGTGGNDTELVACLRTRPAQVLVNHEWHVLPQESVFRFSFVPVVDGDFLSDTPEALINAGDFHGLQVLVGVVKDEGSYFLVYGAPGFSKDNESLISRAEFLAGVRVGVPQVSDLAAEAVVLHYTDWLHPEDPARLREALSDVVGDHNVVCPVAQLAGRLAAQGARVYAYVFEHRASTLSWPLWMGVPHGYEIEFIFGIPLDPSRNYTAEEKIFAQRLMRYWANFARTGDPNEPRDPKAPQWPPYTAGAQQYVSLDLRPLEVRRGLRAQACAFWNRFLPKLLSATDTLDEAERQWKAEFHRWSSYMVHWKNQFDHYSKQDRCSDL

percent oligomer of the total Aβ that remained after immunodepletion of AChE [1]: 47%
percent oligomer of the total Aβ that remained after immunodepletion of HN [1]: 86%
percent oligomer of total Aβ [1]: 63%
Substance: Aβ from A549 cell‐conditioned media (peptide)

Substance: AChE from A549 cell‐conditioned media (from UniProt P22303 32-614) (enzyme)
fold decrease in AChE in a complex with Aβ with 100 μM ATP, relative to samples without added ATP [2]: 2.3 fold

percent oligomer of the total Aβ that remained after immunodepletion of HN [3]: 69%
percent oligomer of total Aβ [3]: 48%
Substance: Aβ from H1299 cell‐conditioned media (peptide)

fold increase in HN bound to Aβ with 100 μM ATP, relative to samples without added ATP [2]: 1.85 fold
fold increase in HN bound to Aβ with 1 mM ATP, relative to samples without added ATP [2]: 2.5 fold
Substance: HN from A549 cell‐conditioned media (peptide)

From article PMC7714071, “Interaction of amyloid beta with humanin and acetylcholinesterase is modulated by ATP” (FEBS Open Bio, 2020)
